Results on three molecules are retold here after patent US20110160440A1, “Cab Molecules” (GENENCOR INTERNATIONAL, INC., priority 2003, published 2011).

The target of data set [1] is T1, CEA (carcinoembryonic antigen) (Homo sapiens, UniProt P06731).
T1 construct: purchased Biodesign Intl., Saco, Me
T1 sequence (P06731 35-676): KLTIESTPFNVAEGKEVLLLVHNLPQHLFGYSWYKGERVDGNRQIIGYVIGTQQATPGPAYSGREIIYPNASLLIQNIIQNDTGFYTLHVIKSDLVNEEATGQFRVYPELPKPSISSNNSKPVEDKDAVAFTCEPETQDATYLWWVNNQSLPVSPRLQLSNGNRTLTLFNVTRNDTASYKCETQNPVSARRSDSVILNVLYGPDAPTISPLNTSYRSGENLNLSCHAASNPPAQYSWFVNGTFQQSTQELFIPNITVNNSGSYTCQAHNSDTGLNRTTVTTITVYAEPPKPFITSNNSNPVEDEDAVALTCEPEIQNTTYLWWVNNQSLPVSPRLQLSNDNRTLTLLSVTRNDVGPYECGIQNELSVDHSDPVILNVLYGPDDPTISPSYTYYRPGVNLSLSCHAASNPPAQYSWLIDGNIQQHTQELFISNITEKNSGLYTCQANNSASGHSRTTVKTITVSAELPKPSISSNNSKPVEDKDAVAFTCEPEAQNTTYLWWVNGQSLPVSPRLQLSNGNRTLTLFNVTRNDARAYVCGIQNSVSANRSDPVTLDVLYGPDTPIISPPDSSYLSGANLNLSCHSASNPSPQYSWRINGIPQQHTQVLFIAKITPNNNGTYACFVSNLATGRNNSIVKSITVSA
Briefly: CEA-binding assay on CEA-coated plates, bound BLA activity read with nitrocefin. The conditions noted are these: for binding to CEA / affinity in library screening: relative to parent clone. As for the experimental part: (§1) Binding to CEA (carcinoembryonic antigen, Biodesign Intl., Saco, Me.) was measured using the following procedure: 96-well plates were coated with 100 ul per well of 5 ug/ml of CEA in 50 mM carbonate buffer pH 9.6 overnight. The plates were washed with PBST and blocked for 1-2 hours with 300 ul of casein (Pierce, Rockford, Ill.). 100 ul of sample from the production plate diluted 100-1000 fold was added to the CEA-coated plate and the plates were incubated for 2 h at room temperature. Subsequently, the plates were washed four times with PBST and 200 ul nitrocefin assay buffer was added, and the BLA activity was measured as described above.
as §1, with “Biodesign Intl., Saco. Me.) was” for “Biodesign Intl., Saco, Me.) was”, “Ill.). 100 n1 of sample” for “Ill.). 100 ul of sample”, “to the CEA coated plate and” for “to the CEA-coated plate and”, “described above. CEA binding was measured in 50 mM phosphate buffer pH 6.5 and in a separate experiment in 50 mM phosphate buffer pH 7.4.” for “described above.”
Winners were confirmed by culturing them in 5 ml of LB medium containing 5 mg/l chloramphenicol and 0.1 mg/l cefotaxime (Sigma) for 2 days at 37 C. Subsequently, the cultures were centrifuged and the pellet was suspended in 375 ul of BPER reagent to release the fusion protein. BLA activity was determined as above. One unit of activity was defined as the amount of BLA that leads to an absorbance increase of one mOD per minute. The samples were diluted based on their total content of BLA activity and the CEA-binding assay was performed as described above but adding various sample dilutions to each well.
In order to compare the target-binding properties of various CAB1 variants, we grew 5 ml cultures of TOP10F′ containing the corresponding expression plasmids, as provided above for 3 days at 25 C in LB medium containing 5 mg/l chloramphenicol. The cultures were centrifuged, and the resulting supernatant was discarded. The cell pellets were resuspended in 500 μL of B-PER reagent. This was incubated for 30 minutes. Lactamase concentration in each sample was determined using nitrocephin as substrate, as provided above.
Binding of the samples to microtiter plates coated with CEA was studied in 50 mM phosphate buffer at pH 6.5 and pH 7.4, as provided above.

Data set [2] deals with LS174T cells. Briefly: Binding of CAB variants to fixed LS174T cells. Details: species or system human. The protocol:
In a similar experiment, binding of variants to LS174T cells was measured. LS174T cells were inoculated in 96 well polystyrene plate at 1×10^5 cells/well in a medium containing 70% DMEM, 30% F12, non-essential amino acids, L-Glut, and Sodium Pyruvate (all from Mediatech). The plate was incubated at 37° C. in a humidified CO2 incubator for 20 hours. The cells were then fixed with 4% formaldehyde in PBS (Polysciences, Warrington, Pa.). The plate was washed with PBST, and 1 mg/ml NaBH4 (Sigma) was added into each well to quench any reactive group. Then the plate was washed again with PBST. Binding of CAB molecules was continued the same way as binding to CEA antigen.

The test system of data set [3] is host proteases. Briefly: Screen for improved expression: total BLA activity and CEA-bound BLA activity of CAB1 fusion variants after 3 days of culture (resistance to host proteases). The conditions noted are these: limited randomized library on pSW129.5 template. The protocol: Degradation seems to occur mainly in the scFv portion of the CAB1 fusion protein as the cultures contain significant amounts of free BLA after 3 days, which can be detected by Western blotting, or a nitrocefin (Oxoid, N.Y.) activity assay. Thus we applied a screen to library NA05 that was able to detect variants of CAB1-scFv that would resist degradation by host proteases over 3 days of culture at 37 C.
Library NA05 was plated onto agar plates with LA medium containing 5 mg/l chloramphenicol and 0.1 mg/l cefotaxime (Sigma). 910 colonies were transferred into a total of 10 96-well plates containing 100 ul/well of LA medium containing 5 mg/l chloramphenicol and 0.1 mg/l cefotaxime. […] The production plate was diluted 100-fold in PBST (PBS containing 0.125% Tween-20) and BLA activity was measured by transferring 20 ul diluted lysate into 180 ul of nitrocephin assay buffer (0.1 mg/ml nitrocephin in 50 mM PBS buffer containing 0.125% octylglucopyranoside (Sigma)) and the BLA activity was determined at 490 inn using a Spectramax plus plate reader (Molecular Devices, Sunnyvale, Calif.).
Binding to CEA (carcinoembryonic antigen, Biodesign Intl., Saco, Me.) was measured using the following procedure: 96-well plates were coated with 100 ul per well of 5 ug/ml of CEA in 50 mM carbonate buffer pH 9.6 overnight. […]

B1: CAB1.4 (protein)
chain: QVQLQQSGAELVKSGGSVKLSCTASGFNIKDSYMHWVRQGPEQGLEWIGWIDPENGDTEYAPKFQGKATFTTDTSSNTAYLQLSSLTSEDTAVYYCNEGTPTGPYYFDYWGQGTTVTVSSGGGGSGGGGSGGGGSENVLTQSPAIVSASPGEKVTITCSASSSVSYMHWFQQKPGTSPKLVIYDTSNLASGVPARFSGSGSGTSYSLTISRMEAEDAATYYCQQRDSYPLTFGAGTKLELKRAATPVSEKQLAEVVANTITPLMKAQSVPGMAVAVIYQGKPHYYTFGKADIAANKPVTPQTLFELGSISKTFTGVLGGDAIARGEISLDDAVTRYWPQLTGKQWQGIRMLDLATYTAGGLPLQVPDEVTDNASLLRFYQNWQPQWKPGTTRLYANASIGLFGALAVKPSGMPYEQAMTTRVLKPLKLDHTWINVPKAEEAHYAWGYRDGKAVRVSPGMLDAQAYGVKTNVQDMANWVMANMAPENVADASLKQGIALAQSRYWRIGSMYQGLGWEMLNWPVEANTVVETSFGNVALAPLPVAEVNPPAPPVKASWVHKTGSTGGFGSYVAFIPEKQIGIVMLANTSYPNPARVEAAYHILEALQ
On to B1, for which the “binding to CEA” value in data set [1] (pH 6.5) was “significant binding”; in data set [1] (pH 7.4), “very weak binding”.

B2: CAB1.7: best variant of library SW155 from SW149.5; SEQ ID NO:9 (protein)
chain: QVQLQQSGAELVKSGGSVKLSCTASGFNIKDSYMHWVRQGPEQGLEWIGWIDPENGDTEYAPKFQGKATFTTDTSSNTAYLQLSSLTSEDTAVYYCNEGLPLGAIYNDYWGQGTTVTVSSGGGGSGGGGSGGGGSENVLTQSPAIVSASPGEKVTITCSASSAVYAMHWFQQKPGTSPKLVIYDTSNLASGVPARFSGSGSGTSYSLTISRMEAEDAATYYCQQRDSYPLTFGAGTKLELDRAATPVSEKQLAEVVANTITPLMKAQSVPGMAVAVIYQGKPHYYTFGKADIAANKPVTPQTLFELGSISKTFTGVLGGDAIARGEISLDDAVTRYWPQLTGKQWQGIRMLDLATYTAGGLPLQVPDEVTDNASLLRFYQNWQPQWKPGTTRLYANASIGLFGALAVKPSGMPYEQAMTTRVLKPLKLDHTWINVPKAEEAHYAWGYRDGKAVRVSPGMLDAQAYGVKTNVQDMANWVMANMAPENVADASLKQGIALAQSRYWRIGSMYQGLGWEMLNWPVEANTVVETSFGNVALAPLPVAEVNPPAPPVKASWVHKTGSTGGFGSYVAFIPEKQIGIVMLANTSYPNPARVEAAYHILEALQ
modifications: CAB1.7 protein variant
As for B2, the “binding to CEA / affinity in library screening” value in data set [1] is recorded as “significantly improved binding to CEA”. For the same molecule, the “binding to LS174T cells” value is “closely resembles the binding curve of CAB1.2” in data set [2] (pH 6.5) and “significantly weaker binding” in data set [2] (pH 7.4, compared to CAB1.2). Besides, in data set [2] (pH 6.5 vs pH 7.4), the “saturation levels of binding curves on LS174T cells” value is “pH-dependent”.

B3: SW149.5 (protein)
chain: QVQLQQSGAELVKSGGSVKLSCTASGFNIKDSYMHWVRQGPEQGLEWIGWIDPENGDTEYAPKFQGKATFTTDTSSNTAYLQLSSLTSEDTAVYYCNEGLPLGAIYNDYWGQGTTVTVSSGGGGSGGGGSGGGGSENVLTQSPAIVSASPGEKVTITCSASSSVSYMHWFQQKPGTSPKLVIYDTSNLASGVPARFSGSGSGTSYSLTISRMEAEDAATYYCQQRDSYPLTFGAGTKLELKRAATPVSEKQLAEVVANTITPLMKAQSVPGMAVAVIYQGKPHYYTFGKADIAANKPVTPQTLFELGSISKTFTGVLGGDAIARGEISLDDAVTRYWPQLTGKQWQGIRMLDLATYTAGGLPLQVPDEVTDNASLLRFYQNWQPQWKPGTTRLYANASIGLFGALAVKPSGMPYEQAMTTRVLKPLKLDHTWINVPKAEEAHYAWGYRDGKAVRVSPGMLDAQAYGVKTNVQDMANWVMANMAPENVADASLKQGIALAQSRYWRIGSMYQGLGWEMLNWPVEANTVVETSFGNVALAPLPVAEVNPPAPPVKASWVHKTGSTGGFGSYVAFIPEKQIGIVMLANTSYPNPARVEAAYHILEALQ
Turning to B3, in data set [1], the “binding to CEA / affinity in library screening” value was “improved expression and affinity”. Moreover, in data set [3], the expression result is on record as “improved expression”.
